In patent US10556007B2, “Antibody which binds Lrg1 and methods of use” (UCL Business PLC, priority 2015, dated 2020):
Values joined by “and” are separate entries in the source; they are usually repeats but may differ in a detail not shown here. Equal values may be shown once. “Also recorded” adds a separate entry of the source.

Experiments:
[1] = target: T1, human Lrg1 (Homo sapiens, UniProt P02750); experiment: Biacore affinity and binding kinetics, human Lrg1
T1 sequence (P02750 36-347): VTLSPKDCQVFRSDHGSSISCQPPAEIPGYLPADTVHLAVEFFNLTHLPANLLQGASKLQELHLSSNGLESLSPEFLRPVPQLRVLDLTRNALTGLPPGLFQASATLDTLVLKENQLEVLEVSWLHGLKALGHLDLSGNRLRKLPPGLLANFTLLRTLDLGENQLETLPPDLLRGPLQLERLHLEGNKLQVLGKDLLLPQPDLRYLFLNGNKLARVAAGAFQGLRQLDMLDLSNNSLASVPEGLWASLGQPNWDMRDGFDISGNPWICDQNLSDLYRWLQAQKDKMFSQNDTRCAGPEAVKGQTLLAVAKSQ
Experimental: Biacore was used to measure the binding affinity, association and dissociation constants of the antibodies to human Lrg1. Human Lrg1 was immobilized on the Biacore chip, and mAbs passed across at concentrations ranging from 20-100 nM. A cut off binding affinity value of 2 nM was used to isolate possible candidate antibodies for further investigation.
The four lead mAbs were examined using Biacore, in experiments in which human Lrg1 was immobilized on the chip, and mAbs passed across at concentrations ranging from 20-100 nM. The Table below summarises the kinetic data.

[2] = tested on: LL/2 tumours; experiment: LL/2 tumour vasculature; assay type: in vivo, mouse; settings: wild type mice, 50 mg per kg
Description: B16/F0 and LL/2 […] tumour cell lines were grafted into wild type and Lrg1 knockout mice.

[3] = tested on: laser-induced choroidal neovascularisation; experiment: Rat laser-induced choroidal neovascularisation (CNV); assay type: in vivo; settings: Long Evans rats, intravitreal at time of lasering, analysis 7 days later
Experimental: Several antibodies were tested for their ability to block CNV in the rat. In these experiments mAbs were injected intravitreally at the time of lasering, with eyes being retrieved for analysis 7 days later (FIG. 5). Long Evans rats, aged 6-8 weeks, each received 5 retinal laser burns at the same time as intravitreal delivery of […] mAb or control IgG into both eyes. Four rats were used for each mAb, so a total of 40 lesions were analysed by staining for collagen IV and the neovascular areas quantified. […] Avastin was also tested in the rat laser model (data not shown) and observed to have no effect, consistent with Avastin having low affinity for rat VEGF.

[4] = tested on: laser-induced choroidal neovascularisation; experiment: Mouse model of laser-induced CNV; assay type: in vivo; settings: intraocular injection at lasering, FFA after 7 days
Experimental: The images on the left of FIG. 17A show a typical wild-type mouse retina under normal illumination (Fundus), and under fluorescence illumination, 7 days after three laser burns were administered to the retinal pigment epithelium. Fluorescence images were captured ˜60 seconds after systemic dosing with fluorescein (Early Phase FFA) and again after ˜7 minutes (Late Phase FFA). At the time of lasering, animals received intraocular injections of either control IgG (top panels) or 15C4 (lower panels). The Early Phase FFA images show the size of the lesions, and the Late Phase images show leakage of fluorescein into the retina. Lesion sizes were quantified for 15C4 at 2.5, 5 and 10 μg doses, and also Eylea at 2 and 4 μg, and the % blocking is a measure of average lesion size relative to that observed in the controls. On the far right a similar analysis was undertaken using Eylea and Magacizumab (both at 2.1 μg) alone and in combination.
Wild type C57B6 mice were anaesthetized and received intravitreal injections of various doses of either Magacizumab, Eylea, or both in combination, immediately following laser photocoagulation of the retinal pigment epithelium. After 7 days (to allow the vascular lesions to form) the mice were again anaesthetized and examined by fluorescein angiography (FFA). Early phase FFA images (taken after 90 s) show the degree of vascularization at the lesion site. Measurement of the lesion area in the early phase images permits quantification in which percentage lesion size is normalized against the IgG4 control (FIG. 18).

[5] = tested on: explanted E16.5 mouse metatarsals; experiment: Mouse metatarsal angiogenesis assay (ex vivo); assay type: cell-based; settings: mAbs at 100 nM, 12 days of culture
Experimental: In this assay the function-blocking activity of the mAbs was tested, using explanted E16.5 mouse metatarsals. Vessels grow spontaneously from the embryonic bones to form a 2D-network that can be readily quantified with regard to, for example, vessel length, calibre and branch points. In the mouse metatarsal assay mAbs were added at 100 nM to the culture medium during 12 days of culture, with replenishment of media and mAbs every two days. At the end of the experiment samples were fixed and immunostained for Platelet endothelial cell adhesion molecule (PECAM), and vascular networks were quantified using Imaris software, with normalization to a phosphate buffered saline (PBS) control.

[6] = target: T1, human Lrg1; experiment: Western blot specificity for human Lrg1; assay type: binding; settings: conditioned medium from MDA-MB cells, human vitreous, whole human serum
Experimental: To evaluate the specificity of the lead mAbs for human Lrg1 western blot analysis of each was performed against conditioned medium from the MDA-MB human tumour cell line, samples of human vitreous humour, and samples of whole human serum.

[7] = target: T2, Lrg1 (overlapping 15-mer peptides and full length) (Homo sapiens, UniProt P02750); experiment: Epitope mapping on ProArray Ultra peptide microarray; assay type: binding
T2 sequence (P02750 36-347): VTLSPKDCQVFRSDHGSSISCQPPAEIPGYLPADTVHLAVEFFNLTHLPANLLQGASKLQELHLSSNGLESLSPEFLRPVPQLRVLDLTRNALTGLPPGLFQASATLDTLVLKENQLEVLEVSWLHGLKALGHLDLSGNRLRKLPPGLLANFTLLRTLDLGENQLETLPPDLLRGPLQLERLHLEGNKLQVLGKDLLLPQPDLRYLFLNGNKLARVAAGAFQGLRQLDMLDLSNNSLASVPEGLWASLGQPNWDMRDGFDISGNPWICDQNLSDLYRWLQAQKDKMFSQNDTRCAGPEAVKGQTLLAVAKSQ
Experimental: The determination of peptide-antibody binding was performed by incubation of serum or antibody samples with a ProArray Ultra® peptide microarray, followed by incubation with a fluorescent-labelled secondary antibody.
All peptides were synthesized separately, and then bound to the ProArray Ultra® slide surface using Prolmmune's proprietary technology. This optimised process ensured that peptides were presented on the array in such a manner as to closely mimic the properties of the corresponding protein region, circumventing the inherent physiochemical variation of the free peptides themselves and making a compatible, combined peptide and protein array platform. The test analytes (peptides or proteins) were dispensed onto the ProArray Ultra® slide in discrete spots and appropriate gal-files enabled exact alignment of the resulting array features back to the analyte deposited.
ProArray Ultra® slides were blocked using a validated blocking buffer to reduce non-specific binding of the sera. […] After several washing steps, the ProArray Ultra® arrays were dried and scanned using a high-resolution fluorescence microarray scanning system. […]
ProArray Ultra® slides containing the immobilised peptides were incubated with the antibody samples. […] The murine IgG positive controls were detected in all samples. […]

[8] = tested on: Human umbilical vein endothelial cells (HUVEC); experiment: Matrigel tube formation assay; assay type: cell-based; settings: 100 nM antibody, overnight
Experimental: The antibodies were tested for their ability to inhibit tube formation in a Matrigel assay. Human umbilical vein endothelial cells (HUVEC) were plated on Matrigel and cultured overnight in the presence of 100 nM mAbs. The blocking rabbit polyclonal Lrg1 antibody was also evaluated. […] Blocking with 4H2 never exceeded ˜50%.

B1: 15C4: mouse monoclonal antibody against human Lrg1, VH SEQ ID NO: 1, VL SEQ ID NO: 2 (antibody, V domains shown)
VH: QVQLQQSGDEVVRPGSSVKISCKASGYTFSGYWMNWVKQRPGQGLQWIGQIYPGDGDTNYNGKFKGKATLTADKSSSTAYMQLSTLTSEDSAIYFCARSITTVVLDYWGQGTTLTVSS
VL: DIVLTQSPVSLAVSLGQRATISCRASQSVSTSGYSFMHWYQQKPGQPPKFLIKYASNLESGVPARFSGSGSGTDFTLNIHPVEEEDTATYYCQHSWEMPLTFGAGTKLELK
modifications: 15C4 Variable Heavy Chain; 15C4 Variable light chain
- affinity for human Lrg1 (in words) ([1]; Biacore): affinity in the picomolar range; also recorded: bound with especially high affinity; also recorded: very high affinity; also recorded: much higher affinity for human Lrg1
- Ka ([1]; human Lrg1 immobilized on chip, mAbs at 20-100 nM): 1.10E+05
- dissociation rate constant (kd) ([1]; rate constant column beside Ka, human Lrg1 immobilized on chip, mAbs at 20-100 nM): 1.40E−07
- Kd ([1]; text summary of Biacore data, read-out: binding affinities for human Lrg1): 1.2 pM
- replication of Lrg1 knockout tumour vessel phenotype [2]: These results were mimicked
- blockade of angiogenesis (CNV) [3]: functional blockade of angiogenesis; also recorded: effective blockade; also recorded: less efficacious than 4H2 in the in vivo rodent models of angiogenesis
- lesion formation [4]: inhibited lesion formation; also recorded: inhibit lesion formation with similar efficacy to the VEGF blocker Eylea
- inhibition of angiogenesis (in words) [5]: inhibited angiogenesis
- inhibition of angiogenesis ([5]; normalised to PBS control, 0.1 µM): ~40% and > 25%
- recognition of Lrg1 band on western blot [6]: strongly recognise a single band of Lrg1 at 50 kD in the conditioned medium and vitreous
- binding to full length Lrg1 on array [7]: binder at all dilutions
- blocking of tube formation [8]: 60%
